# Source: the DeepSol protein solubility set
# Experiment: soluble on expression in E. coli; label from the status in PepcDB or PDB records
row,Sequence,soluble on expression in E. coli
1,MGSDKIHHHHHHMTISNQELTLTPLRGKSGKAYIGTYPNGERVFVKYNTTPILPALAKEQIAPQLLWARRTSNGDMMSAQEWLDGRTLTKEDMGSKQIIHILLRLHKSRPLVNQLLQLGYKIENPYDLLMDWEKQTPIQIRENTYLQSIVTELKRSLPEFRTEVATIVHGDIKHSNWVITTSGLIYLVDWDSVRLTDRMYDVAYILSHYIPQKHWKDWLSYYGYKDNEKVWSKIIWYGQFSYLSQIIKCFDKRDMEHVNQEIYELRKFRELIKKHNAS,not soluble
2,MSKFAERLQTVANKPEVFQKFSRGLERESLRYTPEGALTQTPHPKALGAALTHRWITTDFAESLLEFITPVSHEVDTLLAQMSDIHHFAQTKLGDEKLWPLSMPCYVGSEEGIVLAQYGSSNTGKMKTLYREGLKRRYGSLMQIISGVHFNFSFPESFWDALFGEQEESARQASKSAAYFGVIRNYYRFGWLIPYLFGASPALCSSFLQGRKTDLPFESIGKTLYLPYATSLRLSDLGYTNSAQSVLQIGFNSIEQYLQGLNEAIRTPSAEFAKLGVKVEGEYRQLNSNVLQIENELYAPIRPKRVTQSGERPSQALARAGVEYIEVRSLDVNPFSPIGINEDQVRFLDLFLAWTALSDSDPMDGCELACWRDNWRKVVLEGRKPGLELQIGCHGEVLTLQAWAKRVFADLRVIAETMDAALGGDAYQAVCAKLETWIENPELTLSAQILAEIKQHGGLGKTGCALGNEYRAVNLQHQYQFYSQDEMEQEVRRSTQAQADIEAKETLNFDAYLTQYFAYLQAVS,not soluble
3,MANVNTFSIVKNVKLDLGIEDDNQDQLLEMLLNRITDHFKANYGVLEIDNAFSFVLEDCLIARFNRRGSERAKTEEVEGHKTTYYDHLNEFEPYDAMIMAKLNLIKDKSRKGGLYFL,not soluble
4,GPGSMFRRLSSSARAVVAARFYTPPEGLKKLYASDFENSKYPLNIVPSDSVLFAKFLYKAAEEKGNFDNILSDFQKIAAAASKLPIFWERTAVVEKIPEFKQLSEPTFFTLVWMQNNGMLELIQEVAEVYETFVNAKQKKAVAKIFVAPGGEKNVEEARRVAEELHKGLKELADYTLVLKTVVDRTIVKGFAVELAGQYVNKAEGQQKQAGRADEVDYTNLPAPKPQKTVWDDNIETEVLRKYLDGLSQYDMEEAKYGV,not soluble
5,MFKHKKNEARNYSKMRESRYEYGTILKAHAAFVEIVTRPAPHRDNLPFNMSTLSVLIETSSCSWGMLASAHGDRTIGIILRAIVSFCNAHLGQSANNQLLVFAYGRNVDNKMIYSSTRCEDRNASFLVVKRLRELLSSDALTNDATIGAPLGPALAHAFCHMKKDSRVVTADPCDDSLGPQTTSEQSETASEKATNRAVVISITPIMGSEHGSLMNLFFSAAKQSICVDVVSMGDDFTGGILQQAADITGGSFLHAKKPQTLLKILMTNMLTDPTHRAVFSKLSHNSVDYRASCACHHQLVSSGWVCSICLSVLCQYTPICKVCKAAFTIANLPIKPNRKRAIRN,not soluble
6,KRFEFVGWGSRQLIEFLHSLGKDTSEMISRYDVSDTIAKYISKEGLLDPSNKKKVVCDKRLVLLFGTRTIFRMKVYDLLEKHYKENQD,soluble
7,MSLVQLYVSDSVSRISFADGRVIVWSEELGESQYPIETLDGITLFGRPTMTTPFIVEMLKRERDIQLFTTDGHYQGRISTPDVSYAPRLRQQVHRTDDPAFCLSLSKRIVSRKILNQQALIRAHTSGQDVAESIRTMKHSLAWVDRSGSLAELNGFEGNAAKAYFTALGHLVPQEFAFQGRSTRPPLDAFNSMVSLGYSLLYKNIIGAIERHSLNAYIGFLHQDSRGHATLASDLMEVWRAPIIDDTVLRLIADGVVDTRAFSKNSDTGAVFATREATRSIARAFGNRIARTATYIKGDPHRYTFQYALDLQLQSLVRVIEAEGHHHHHH,not soluble
8,MPSLGEAPQDLQRSQERRRIERIFAQGGKGVASPHRFPGPLPMLQNIPTHVIAGPLGAGKTSLIRHLLSQRPAAERWAVLINEFGQIGLDAALLTRDEDGIALGEVAGGCLCCVNGAPFQVGLGRLLRKARPDRLLIEPSGLGHPAQLLKQLNEAPWKGVLAVQPCVLVLDAQALAAGKPLPRAQQDALSSAGLLVLNKDELLSDSDRLRVLEQLPDLPLFWTRHAALPLAELPGLGASAEAALEQSDIPQGLAQLPAVWSDPTLPICLSQSQEDGWSIGWRWHPSQQFDLVRVEHWLQNLDWRRAKLVLHSDQGWRSGNGLDNSPLNWLPSEWRRDSRLELIFSSPQDIAVLQASLDACRLLEHHHHHH,not soluble
9,MSLSQYAEMSLVYDQLTQDQPYEKWFEIVKNHCKDESNILDIGCGTGSLTVQLEALGNVTGMDLSVDMLTVAAQKSANVNWLEGDMTSFDLQQQFDIITIFCDSLNYLQDETAVIETFINVYHHLTDSGVFIFDVHTVYKMMTLFNNQSYIDDKGDIFLAWDAVQGDLPLSVYHDMTFFIRHEDETYSRFDESHFQRTFDEKTYLSWLAQVGFKHVETFTDFNIDEHNEDTERLFFIAKKEGHHHHHH,soluble
10,GSSHHHHHHSSGLVPRGSHMSVQNVVLFDTQPLTLMLGGKLSYINVAYQTYGTLNDEKNNAVLICHALTGDAEPYFDDGRDGWWQNFMGAGLALDTDRYFFISSNVLGGCKGTTGPSSINPQTGKPYGSQFPNIVVQDIVKVQKALLEHLGISHLKAIIGGSFGGMQANQWAIDYPDFMDNIVNLCSSIYFSAEAIGFNHVMRQAVINDPNFNGGDYYEGTPPDQGLSIARMLGMLTYRTDLQLAKAFGRATKSDGSFWGDYFQVESYLSYQGKKFLERFDANSYLHLLRALDMYDPSLGYENVKEALSRIKARYTLVSVTTDQLFKPIDLYKSKQLLEQSGVDLHFYEFPSDYGHDAFLVDYDQFEKRIRDGLAGN,soluble
11,MCTFCSIINRELEGYFVYEDEKFAAILDKYPVSLGHTLVIPKKHFENYLEADEDTLAELAKVVKLVSLGIKDAVKADGLRLLTNIGRSAGQVIFHLHVHIIPTWEGDYPDIFKSFKPRKEQEKEYYELLQKIIRESIENLKRKIGDYKWG,soluble
12,MWRVCARRAQNVAPWAGLEARWTALQEVPGTPRVTSRSGPAPVRRNSVTTGYGGVRALCGWTPSSGATPRNRLLLQLLGSPGRRYYSLPPHQKVPLPSLSPTMQAGTIARWEKKEGDKINEGDLIAEVETDKATVGFESLEECYMAKILVAEGTRDVPIGAIICITVGKPEDIEAFKNYTLDSSAAPTPQAAPAPTPAATASPPTPSAQAPGSSYPPHMQVLLPALSPTMTMGTVQRWEKKVGEKLSEGDLLAEIETDKATIGFEVQEEGYLAKILVPEGTRDVPLGTPLCIIVEKEADISAFADYRPTEVTDLKPQAPPPTPPPVAAVPPTPQPLAPTPSAPCPATPAGPKGRVFVSPLAKKLAVEKGIDLTQVKGTGPDGRITKKDIDSFVPSKVAPAPAAVVPPTGPGMAPVPTGVFTDIPISNIRRVIAQRLMQSKQTIPHYYLSINVNMGEVLLVRKELNKILEGRSKISVNDFIIKASALACLKVPEANSSWMDTVIRQNHVVDVSVAVSTPAGLITPIVFNAHIKGVETIANDVVSLATKAREGKLQPHEFQGGTFTISNLGMFGIKNFSAIINPPQACILAIGASEDKLVPADNEKGFDVASMMSVTLSCDHRVVDGAVGAQWLAEFRKYLEKPITMLL,soluble
13,MSHHHHHHAGIFTFEEPVTHVSESIGIMEVKVLRTSGARGNVIVPYKTIEGTARGGGEDFEDTCGELEFQNDEIVKTISVKVIDDEEYEKNKTFFLEIGEPRLVEMSEKKGGFTITEEYDDKQPLTSKEEEERRIAEMGRPILGEHTKLEVIIEESYEFKSTVD,soluble
14,MGSDKIHHHHHHMIPPVPQKGRGTAHNPHNRFAPGHSVAEDDGWYQEVPQTQGTEVRIETAKSVISRNTSPDLPFDRSINPYRGCEHGCIYCYARPSHAYWDLSPGLDFETKLIAKTNAAEVLAQQLSKPGYVCAPINLGSNTDPYQPIEREQLLTRRLLEVLLRFRHPVTIVTKGSLVLRDLDLLAEMARQRLARVMISLTTLDDGLKRVLEPRAASPGARLRAIRVLREAGVPVGVLCSPMIPMINDSELERLLEAAKEAGAQSAAYMMLRLPLEVAPLFEQWLQDHYPQRAAHVLSLIRQSRGGELYDSRFGVRMRGEGVFAELLAQRFAKAMKRLDFEGREAQELDCSAFCPPGGQMALF,not soluble
15,MASYTLRQLKYFVTTVECGSVAEASRKLYIAQPSISTAVKGLEESFGVQLFIRHHAQGVSLTPAGARFYRKAQELLRMAHEFEQNALADNDVIAGQIDIGCFETVAPLYLPGLIAGFRQAYPGVEIRIRDGEQQELVQGLTSGRFDLAFLYEHDLDSTIETEPLMPPQRPHALLPEGHRFAGQAQVSLRDLCLEPMILLDVQPSRTYFVSLFEELGLTPNIAFSSPSIEMVRGMVGQGFGFSLLVTRPHSECTYDGKKVVMVDLAEPVSTSGLAAAWLKRAQLTKPARLFVDYCREQLGKLAERRH,soluble
16,PREFVLRPAPQGRTVRCRLTRDKKGMDRGMYPSYFLHLDTEKKVFLLAGRKRKRSKTANYLISIDPTNLSRGGENFIGKLRSNLLGNRFTVFDNGQNPQRGYSTNVASLRQELAAVIYETNVLGFRGPRRMTVIIPGMSAENERVPIRPRNASDGLLVRWQNKTLESLIELHNKPPVWNDDSGSYTLNFQGRVTQASVKNFQIVHADDPDYIVLQFGRVAEDAFTLDYRYPLCALQAFAIALSSFD,soluble
17,MGSDKIHHHHHHMTARQDLVDLIAAIDAGSGPARNPYWRDLAVDDSVARKAAVLMLFGALDNVPAASGKPLAPADLDVLLLERAHTLDDHPGQVAFPGGGIDPGETPIEAALREAEEETGLDSAGVEVLGAMPQLALPRGNFLVTPVLAWWHSPSPVRVVDYGESAQVFRVPVRDLLDPDNRVMATVSRAGQSFLSPAFVVNKVVVWGFTGMILNELFDHLGWSVPWDRSRLHQIDV,not soluble
18,MGSDKIHHHHHHMQVYPLIMNKLVMPAASRFTDLKIWDEYKVMLKSERLSLEQLRQMQLTKLQTIVRHAYENVPFYRQRFDSIGLHPEDIKSIEDIERIPPTTKDDIMANFPEGITAGGMDRNRWKYVASSGTTRKIMGIHDFRKSTLNWAAGIRAHRLAGNHRMGMKWMEIPPHMCTTICGINDGPKGEKLSTKKLVSLVKEGDFGGAGRHVYEGLYSMRHDLYKRVTLPSFGPEGTNIPESDIVSYLDSIRSYQPHLLEGLPLYLYTFAKYILDKGISAPRVGVIKPFGGSLTPYMKQIIATAFGCEVYDTYGCSELGFMAADCPKHEGVHLFMDLYHVEVRHGDRAAAPGELGKFYVTDLENRAMPWIRYEIGDVGRYFEDDHGCGRRGIRLEVEGRVQDTLVNSQGRFFTSDEVFDFFHRREEIDNFQLTEKSAGRYELLCVPVEGKEVDREGIARDFREFFDTEANVKAYAVKTIKAEDGGKFRFIKAKGHDRL,not soluble
19,MAEASSLVGKLETEVEIKASAKKFHHMFTERPHHVSKATPDKIHGYGKLTVGKNKIEAVDPEKNLITFKVLEGDLMNEYKSFAFTLQVTPKQGESGSIAHWHLEYEKISEEVAHPETLLQFCVEISKEIDEHLLAEE,soluble
20,MGSDKIHHHHHHMSLPIIKVHWLDHSRAFRLLWLLDHLNLEYEIVPYKRDANFRAPPELKKIHPLGRSPLLEVQDRETGKKKILAESGFIFQYVLQHFDHSHVLMSEDADIADQINYYLFYVEGSLQPPLMIEFILSKVKDSGMPFPISYLARKVADKISQAYSSGEVKNQFDFVEGEISKNNGYLVDGKLSGADILMSFPLQMAFERKFAAPEDYPAISKWLKTITSEESYAASKEKARALGSNF,not soluble
21,MTPPRVLSIAGSDSGGGAGIQADMRTMALLGVHACVAVTAVTVQNTLGVKDIHEVPNDVVAGQIEAVVTDIGVQAAKTGMLASSRIVATVAATWRRLELSVPLVVDPVCASMHGDPLLAPSALDSLRGQLFPLATLLTPNLDEARLLVDIEVVDAESQRAAAKALHALGPQWVLVKGGHLRSSDGSCDLLYDGVSCYQFDAQRLPTGDDHGGGDTLATAIAAALAHGFTVPDAVDFGKRWVTECLRAAYPLGRGHGPVSPLFRLS,not soluble
